Experimental data reported in the supplement of paper PMC12764529.
± gives the half width of the 95% confidence interval.

Legend:
[1] = folding stability dG unfold (combined trypsin and chymotrypsin); higher = more stable
In short: (§1)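 Bayesian fitting of sequencing counts gave K50 for each design. Unfolding free energy followed by setting this against a sequence-predicted unfolded-state K50 and a shared folded-state K50, either per protease or with trypsin and chymotrypsin combined. The designs, under 80 residues and lacking cysteine, were digested in a PA-tagged cDNA display format at 11 threefold-diluted protease concentrations and without protease, and only those with AlphaFold2 dimer inter-PAE above 15 were kept.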

[2] = folding stability dG unfold from trypsin proteolysis; higher = more stable
In short: as §1

[3] = folding stability dG unfold from chymotrypsin proteolysis; higher = more stable
In short: as §1

Sequence | folding stability dG unfold [1] [kcal/mol] | folding stability dG unfold [2] [kcal/mol] | folding stability dG unfold [3] [kcal/mol]
SAGGKLTLEEIKALLKEGKEYSLEELLKKIAELLNLTVELEEEPEKVTVVKVDPETGEIVEEKEIDLSAGGS [r8_105_TrROS_Hall] | 2.28 ± 0.11 | 2.01 ± 0.1 | 2.44 ± 0.036
SAGGSAGGSASITLTLGDTPLEVSTDPSTNTYTFTYPAPGLVLTLDVSTGKLSARPLAELASAGGSAGGSAG [r3_137_JUSTAS] | 1.13 ± 0.077 | 0.216 ± 0.11 | 1.69 ± 0.071
SAGGMKITLPPGAEITEVFELPDGQLLLRVRHKDTGKTEVVPASDLEIEIEPGEEVEVEIFRVPKEDLSAGG [r13_173_TrROS_Hall] | 1.39 ± 0.14 | 1.38 ± 0.069 | 1.45 ± 0.13
SAGKTATFTFTLPLPENDLILRVTVRVEEVEDIGEKKVYRVNVEIDLIDKDGVPHRFSFSFLVPAEELFSAG [r14_916_TrMRF] | 4.83 ± 0.16 | 3.39 ± 0.15 | 5.14 ± 0.11
SAGGIRIDDEGMIQIYFPGWRHTIPIKPNLEITEITIPDDGYIKITFRIPGKTVKHEFPMLPPGQEISAGGS [r16_635_TrROS] | 1.82 ± 0.27 | 2.35 ± 0.082 | 1.32 ± 0.1
SAGGSAGGSAGDDGSDLPVVDLKVSISPFVRPLPNGEEVTVWKVLVENPGSSSRSEFYFGSAGGSAGGSAGG [r17_59_TrMRF] | 0.283 ± 0.15 | 0.337 ± 0.12 | 0.118 ± 0.19
SAGGSAGIEERLKKLAEELGLEVKVTKVEVKVDGKEEVVVEVEVEPPPPPVEVKELSEEERKKAEESAGGSA [r15_256_TrROS_Hall] | 1.13 ± 0.23 | 1.27 ± 0.21 | 0.99 ± 0.19
GRMYIVKIEIKVKRRDPEEGETRERKLEVHVIFPPNDPDALEKADEIARNLAEEDGITDVKVKIYPIRLPDS [r1_346_TrROS] | 1.74 ± 0.22 | 1.48 ± 0.051 | 1.89 ± 0.073
SAGGSAGGSAGGPPYEVNIYIKFRPPDGKPPTFPIDVNVNDPEDAKDELEDNFPNMEIVSAGGSAGGSAGGS [r10_1248_TrROS] | 0.919 ± 0.23 | 0.592 ± 0.051 | 0.996 ± 0.15
SAGGSAGGSAGGEPIPTKTIEVDEATGTVTVTVTFPPPNETVTVTRPAPPDVSLEEVLASAGGSAGGSAGGS [r10_676_JUSTAS] | 1.59 ± 0.15 | 1.07 ± 0.17 | 1.58 ± 0.15
SAGMIEISEEGDTLTVTVPPGVSLEEVREYVEKKYPGMDLQEITETALPDGTTTVTFNVKKNPPSPKLLSAG [r5_110_JUSTAS] | 0.316 ± 0.16 | -0.658 ± 0.37 | 0.699 ± 0.23
SAGSLELPPGVSEVVYDPSSGVYSVRYPDGTLVQVDVLYEPDPFVDELHPVAFVSVYSPTSLLATAPLNSAG [r5_109_TrMRF] | 0.979 ± 0.067 | 0.821 ± 0.019 | 1.07 ± 0.11
SLTPEQVEKIAKTIADVFRKLGYELKVKTKVFEVNNVPVAVVEFELIDKDGKPRRFRFVIHPDGTIEIFPSA [r9_1027_TrMRF] | > 6 | 4.15 ± 0.07 | 6.18 ± 0.092
SAGGSAGGSAGGGSMTLTEVFVDPETGTRTVRTTTLYTLPNGTLTSTTTTTVEPLPGELSAGGSAGGSAGGS [r10_1258_JUSTAS] | 1.76 ± 0.043 | 1.51 ± 0.022 | 1.87 ± 0.025
SAGGKTVEVEFEAPESLSPEEIAAAILAAAPPGYFVKVEEVEVRDRPDGEKVILYKATFYDPDTGDFDSAGG [r13_12_TrMRF] | 2.73 ± 0.048 | 2.72 ± 0.081 | 2.804 ± 0.021
SAGGSAGGSKPDTIKITFPDGFEIEINGPGMIMIRFPEQGYIFRIPIDPDKNEIKIEIVEPLPSAGGSAGGS [r12_539_TrROS] | 3.05 ± 0.13 | 2.43 ± 0.11 | 3.39 ± 0.045

Sequence | folding stability dG unfold [1] [kcal/mol] | folding stability dG unfold [2] [kcal/mol] | folding stability dG unfold [3] [kcal/mol]
SAGGSAGGSAGGPKIEVNEDGTVTITLEVDGKLVTKTVKVELEAPPVETVEFVKEGEEVSAGGSAGGSAGGS [r10_240_TrROS_Hall] | 1.02 ± 0.077 | 0.822 ± 0.043 | 1.21 ± 0.046
SAGGSAGGSAGGSAELLEVLEVTKTGSGYTVKVLERSPELGPSVRTESFPADDTSVLLLSAGGSAGGSAGGS [r4_253_JUSTAS] | -0.0527 ± 0.1 | -0.00295 ± 0.088 | -0.384 ± 0.22
SAGGSAGGSAGGKIKLTVTVDADGNATVTLEIEVESPEDKPFTIRLTLTFPLKDGESLTSAGGSAGGSAGGS [r10_763_TrMRF] | 3.82 ± 0.17 | 3.9 ± 0.29 | 3.88 ± 0.12
SAGGKKIKVEVKIEIKIEKNPDGSYTIRIKITVKVTNENGEKFEVKVELEITLSEEELEKLKKLLEELSAGG [r13_412_TrROS_Hall] | 3.5 ± 0.39 | 3.07 ± 0.24 | 3.75 ± 0.46
SAGGSAGGSGPNIKVSSSTSTYTLPNGKKVTVKTIVIETENSKYLIVVLTDPNGKSIVFIKPLSAGGSAGGS [r12_213_TrMRF] | 3.89 ± 0.28 | 3.21 ± 0.23 | 3.92 ± 0.15
SAGGSAGGSAGKTYTLTITTENGKTITLPKDVEVVYDEKTGYLYIKNKKTNKVIKVKLKDSAGGSAGGSAGG [r17_432_TrROS_Hall] | 2.19 ± 0.079 | 2.13 ± 0.051 | 2.21 ± 0.059
SSEILEKLAKELPDLEPVGVEEEPLPDGGRRLTLVARRPETGTYVRVTVDVPPGGGVASVEVEEVPVSRLSA [r9_274_JUSTAS] | 1.77 ± 0.054 | 0.529 ± 0.054 | 2.23 ± 0.033
SAGGMSFTMTVPPSNPNQVVGTNVPVSDVPPNYAYTLHFPNTGTTTTIPVSQAEEVKAQPHIDEITATSAGG [r19_302_JUSTAS] | 0.486 ± 0.04 | 0.688 ± 0.03 | 0.0302 ± 0.085
SAGGSAGGSAGGSWITFRIPEGNPEFIEELARGFGIKPKRINPNRGTITIKLPPGAKIVSAGGSAGGSAGGS [r4_3_TrROS] | 0.641 ± 0.11 | 0.474 ± 0.12 | 0.645 ± 0.096
SASPSETTTYTVELTSTDPSLTPEDLAERAREEFEAALPPGTRVEVEVVSVTPIPETGTTRYTIRITVRRSA [r9_706_JUSTAS] | 4.55 ± 0.027 | 5.18 ± 0.1 | 4.26 ± 0.046
SMKPGDKLLIRIRLPPVKVEREYFDKDGKLVKKETKEVKEVELVIELSPEELEKLRELLKELGFEVEILPSA [r9_167_TrROS_Hall] | 2.5 ± 0.16 | 2.83 ± 0.16 | 2.4 ± 0.055
SAGKIEILDEKPYKDSITVVAKLPGTDEIIVLTYNPKTKTVEIKIFPPKGVKTIPVKAKDIEKALKEIASAG [r5_769_TrMRF] | 1.7 ± 0.25 | 0.728 ± 0.072 | 2.18 ± 0.16
SAGGSAGGNVLIPKSKLEEFLKNIPFEVLVLNPENPRLEIARVEADDIFVDDDYALILLTVSNDSAGGSAGG [r6_753_TrMRF] | 0.742 ± 0.12 | 1 ± 0.032 | 0.221 ± 0.18
SMEISFTDPAEAEALLAEVKAKLKAELPPNTVVPITVRDAAGNPTTHPITITPEPPEVVYFTETGGTVLLSA [r9_596_JUSTAS] | 1.76 ± 0.28 | 1.94 ± 0.17 | 1.57 ± 0.051
SAGMVEIVHDPAGYYTVNVTLTKEGKPTSRTIRVPPELSPEEVKALVEELAKEEGVDDVEVTVIPLPESAGG [r19_31_JUSTAS] | 1.41 ± 0.12 | 1.1 ± 0.035 | 1.51 ± 0.12
